The results in this text go back to patent US20090281028A1.

What all share (assay): cell-based or functional assay
The target of experiment [1] is human Kv1.3 channel (human) (UniProt P22001).
Experiment [2] concerns the target human Kv1.3 voltage-gated potassium channel (human) (UniProt P22001).
Experiment [3] concerns the target human Kv1.1 voltage-gated potassium channel (human) (UniProt Q09470).
The target in experiment [4] is human Kv1.1 channel (human) (UniProt Q09470).
The target in experiment [5] is human Kv1.3 channel (human) (UniProt P22001). This is another data set of the same source.

Read-outs that look alike come from different tables or passages of the source. Ends that are not written are not given here.

human Kv1.3 voltage-gated potassium channel (human), sequence (P22001 whole entry): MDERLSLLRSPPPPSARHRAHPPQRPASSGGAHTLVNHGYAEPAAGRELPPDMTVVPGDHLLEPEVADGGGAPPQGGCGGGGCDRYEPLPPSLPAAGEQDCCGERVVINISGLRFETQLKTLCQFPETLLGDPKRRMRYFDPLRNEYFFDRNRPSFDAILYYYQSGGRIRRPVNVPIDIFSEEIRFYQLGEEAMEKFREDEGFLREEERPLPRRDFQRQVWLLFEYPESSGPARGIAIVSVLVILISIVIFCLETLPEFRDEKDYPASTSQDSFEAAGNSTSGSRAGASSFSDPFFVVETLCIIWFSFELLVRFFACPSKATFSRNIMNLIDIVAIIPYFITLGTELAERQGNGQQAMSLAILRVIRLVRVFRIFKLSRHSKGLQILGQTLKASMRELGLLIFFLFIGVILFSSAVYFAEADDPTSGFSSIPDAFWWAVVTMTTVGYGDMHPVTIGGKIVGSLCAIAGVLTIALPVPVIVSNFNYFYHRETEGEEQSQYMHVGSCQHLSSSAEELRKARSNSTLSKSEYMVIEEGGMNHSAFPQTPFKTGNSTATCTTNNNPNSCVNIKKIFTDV
human Kv1.3 channel (human), sequence (P22001 whole entry): as above
human Kv1.1 channel (human), sequence (Q09470 whole entry): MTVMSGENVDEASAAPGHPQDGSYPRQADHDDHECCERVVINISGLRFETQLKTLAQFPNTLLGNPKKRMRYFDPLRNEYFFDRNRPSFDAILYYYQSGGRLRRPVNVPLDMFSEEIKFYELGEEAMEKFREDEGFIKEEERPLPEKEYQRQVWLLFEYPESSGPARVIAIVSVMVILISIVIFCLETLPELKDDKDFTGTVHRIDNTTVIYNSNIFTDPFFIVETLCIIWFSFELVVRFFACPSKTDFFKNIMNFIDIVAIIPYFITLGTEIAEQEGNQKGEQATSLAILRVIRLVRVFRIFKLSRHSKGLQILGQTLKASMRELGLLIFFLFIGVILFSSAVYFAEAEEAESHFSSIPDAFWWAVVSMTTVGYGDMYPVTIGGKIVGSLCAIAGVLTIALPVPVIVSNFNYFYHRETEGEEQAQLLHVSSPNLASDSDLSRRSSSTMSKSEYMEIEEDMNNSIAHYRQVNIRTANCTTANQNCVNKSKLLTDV
human Kv1.1 voltage-gated potassium channel (human), sequence (Q09470 whole entry): as above

In experiment [1], “E. coli-derived Fc-L-ShK[2-35] (Fc fusion)” displayed a Kv1.3 IC50 by IWQ (nM), IonWorks planar patch clamp, CHO/Kv1.3 cells of 2.8 nM and a Kv1.3 IC50 by WCVC (nM), whole cell patch clamp, HEK293/Kv1.3 cells of 1.3 nM.

In experiment [1], “Fc-L5-ShK[2-35] (CHO-derived, bivalent dimeric) (Fc fusion)” showed an IC50 of block of the outward potassium current, whole cell patch clamp of 0.1 nM.

In experiment [2], “OSK1 (wild-type), toxin peptide of Orthochirus scrobiculosus scorpion venom” came in with a Kv1.3 (IC50, pM); whole cell patch clamp ePhys of 39 pM and a Kv1.3 Selectivity (=Kv1.1/Kv.3 IC50) of 5 fold. The Kv1.1 (IC50, pM); whole cell patch clamp ePhys in experiment [3] turned out to be 202 pM.

In experiment [2], 20k PEG-ShK (peptide) returned a WB/IFNg (IC50, nM); human whole blood of 0.065 nM and a WB/IL-2 (IC50, nM); human whole blood of 0.046 nM.

The molecule “E. coli-derived Shk[1-35]-L-Fc (Fc fusion)” had a Kv1.3 IC50 by IWQ (nM), IonWorks planar patch clamp, CHO/Kv1.3 cells in experiment [1] of 2.4 nM.

The molecule “Fc-L10-OSK1 (stably expressed in CHO cells) (Fc fusion)” gave a fold loss of potency (IC50 of Kv1.3 current block) against synthetic OSK1 in experiment [1] of 5 fold.

For the molecule “E. coli-derived ShK[2-35]-L-Fc (Fc fusion)”, the Kv1.3 IC50 by IWQ (nM), IonWorks planar patch clamp, CHO/Kv1.3 cells in experiment [1] worked out at 4.9 nM.

In experiment [1], “PEG-OSK1 (N-terminally 20 kDa PEGylated synthetic OSK1) (peptide)” registered a peak IC50 of block of the outward potassium current, whole cell patch clamp of 1.28 nM.

Molecule “Fc-L10-ShK[2-35] (CHO-derived, bivalent dimeric) (Fc fusion)” gave an IC50 of block of the outward potassium current, whole cell patch clamp in experiment [1] of 0.115 nM.

As for 20k PEG-OSK1[Ala29, 1Nal34] (peptide), in experiment [2], the WB/IFNg (IC50, nM); human whole blood stood at 0.081 nM and the WB/IL-2 (IC50, nM); human whole blood turned out to be 0.049 nM.

In experiment [2], OSK1-K16, D20 (peptide) returned a WB/IFNg (IC50, nM); human whole blood of 1.32 nM and a WB/IL-2 (IC50, nM); human whole blood of 1.58 nM.

On to “Fc-L25-ShK[2-35] (CHO-derived, bivalent dimeric) (Fc fusion)”, for which the IC50 of inhibition of human Kv1.3, whole cell patch clamp in experiment [1] is 0.15 nM.

In experiment [4], Synthetic OSK1 (peptide) returned a hKv1.1: IC50 [pM], block of current, whole cell patch clamp of 160 pM. In addition, in experiment [1], the hKv1.3: IC50 [pM], block of current, whole cell patch clamp was 39 pM and the selectivity ratio hKv1.1/hKv1.3 (IC50) is 4 fold.

For “E. coli-derived Fc-L-ShK[1-35] (Fc fusion)”, in experiment [1], the Kv1.3 IC50 by WCVC (nM), whole cell patch clamp, HEK293/Kv1.3 cells stood at 1.4 nM.

As to E. coli-derived Fc-L-OSK1 (Fc fusion), in experiment [1], the Kv1.3 IC50 by WCVC (nM), whole cell patch clamp, HEK293/Kv1.3 cells was 3.2 nM.

Consider GGGGS-Osk1 (peptide), for which, in experiment [2], the WB/IFNg (IC50, nM); human whole blood came out at 2.2 nM and the WB/IL-2 (IC50, nM); human whole blood is 1.36 nM.

For Fc-L10-OSK1 (Fc fusion), in experiment [4], the hKv1.1: IC50 [pM], block of current, whole cell patch clamp was 41600 pM.

In the case of SCIDTIPKSRCTAFQCKHSMKYRLSFCRKTCGTC (not fully specified; ends and bridges not checked) [synthetic ShK[2-35]], in experiment [5], the IC50 of block of the outward potassium current, whole cell patch clamp came to 0.049 nM.

In turn, RSCIDTIPKSRCTAFQCKHSMKYRLSFCRKTCGTC (not fully specified; ends and bridges not checked) [20K PEG-ShK[1-35]] yielded a peak IC50 of block of the outward potassium current, whole cell patch clamp in experiment [5] of 0.169 nM.
